These are literature values, as cited in PMC6929323.

For orientation: Kd means the concentration at which binding is half-saturated.

For this data set, the target named is UFD1L-NPLOC4 (Homo sapiens) (UniProt Q92890). Kind of data set: ITC. (In ITC the heat of successive injections is recorded.)
UniProt Q92890, sequence (Q92890 whole entry, chain 1 of 2): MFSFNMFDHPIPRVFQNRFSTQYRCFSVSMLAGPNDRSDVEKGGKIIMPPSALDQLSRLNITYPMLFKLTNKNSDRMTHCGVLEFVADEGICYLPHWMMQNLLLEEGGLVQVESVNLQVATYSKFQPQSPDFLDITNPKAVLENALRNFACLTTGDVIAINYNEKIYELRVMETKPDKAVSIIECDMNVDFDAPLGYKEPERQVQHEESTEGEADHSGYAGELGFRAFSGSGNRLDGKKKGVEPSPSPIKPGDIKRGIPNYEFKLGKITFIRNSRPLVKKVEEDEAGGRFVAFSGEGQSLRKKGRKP
UniProt Q92890, sequence (Q8TAT6 2-608, chain 2 of 2, further chain): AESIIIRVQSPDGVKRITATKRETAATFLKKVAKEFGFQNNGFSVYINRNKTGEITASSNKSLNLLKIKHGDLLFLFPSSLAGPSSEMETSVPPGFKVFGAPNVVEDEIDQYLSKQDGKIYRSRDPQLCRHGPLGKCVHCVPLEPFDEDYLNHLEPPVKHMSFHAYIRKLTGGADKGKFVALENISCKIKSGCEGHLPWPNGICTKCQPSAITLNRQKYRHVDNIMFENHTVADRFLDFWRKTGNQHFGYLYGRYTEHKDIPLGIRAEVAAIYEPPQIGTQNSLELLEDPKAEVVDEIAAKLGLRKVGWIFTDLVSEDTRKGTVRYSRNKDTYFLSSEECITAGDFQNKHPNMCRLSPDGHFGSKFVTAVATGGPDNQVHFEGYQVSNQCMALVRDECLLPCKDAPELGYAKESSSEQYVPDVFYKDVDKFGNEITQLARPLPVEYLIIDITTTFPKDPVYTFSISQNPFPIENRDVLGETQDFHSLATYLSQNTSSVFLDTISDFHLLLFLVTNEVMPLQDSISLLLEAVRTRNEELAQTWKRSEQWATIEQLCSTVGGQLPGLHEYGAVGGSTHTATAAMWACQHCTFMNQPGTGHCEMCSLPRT

p97 (from UniProt P55072): the Kd was 1700 nM.
